For 167 variants, self-cleavage results are on record in the RNAGym collection of RNA variant scans (doi:10.7554/elife.80360).

Sequences and labels used below:
B1: HDV Ribozyme (parent)
chain: GGCCGGCAUGGUCCCAGCCUCCUCGCUGGCGCCGGCUGGGCAACAUUCCGAGGGGACCGUCCCCUCGGUAAUGGCGAAUGGGACCCA

In the series the parent is B1. In words: self-cleavage, relative activity (ratio to wild type); higher = more cleavage; co-transcriptional.
Take C7U A87G: the self-cleavage turned out to be 0.91.
The result for U47A A78C reads 0.147.
With C3U A43U, the self-cleavage is 0.496.
The result for C3U C33U reads 0.769; that for C61A G68A, 1.08; that for C36G C48U, 0.231.
U12G U47C: the self-cleavage is 0.437.
Under A8G C36G stands 0.104; under A16G C19A, 0.237; under C22U G39A, 0.185.
On to C33A U46C, for which the self-cleavage worked out at 0.0875.
For the variant C30U G53U, the self-cleavage is 0.697.
The result for C41G C61U reads 0.886.
The result for G81A G82A reads 0.201; that for G35C A87G, 0.205; that for C22G U47A, 0.122.
The result for C4G U9C reads 0.19; that for U12A C49G, 0.115; that for G10U A42U, 0.174.
Consider C48G G50A, for which the self-cleavage was 0.798.
For the variant C58G A71G, the self-cleavage came to 1.07.
For the variant C21A G80U, the self-cleavage worked out at 0.0622.
The result for G68U A78G reads 0.639; that for C7U C21U, 0.0652.
As for A71U, the self-cleavage was 0.93.
As for G59U U69G, the self-cleavage is 1.14.
Turning to C33G A87C, the self-cleavage amounted to 0.0839.
The result for G73C A77U reads 0.151; that for U9G C30G, 0.145; that for C7A C30U, 0.0396.
The result for G68C U69C reads 0.697.
Under U20A C86A stands 0.0723; under G40U C61G, 0.534; under C18A U46G, 0.128.
On to G1A C41A, for which the self-cleavage was 0.222.
For the variant U12C C21U, the self-cleavage came to 0.
With G6A C18G, the self-cleavage was 0.115.
Under G40C C48G stands 0.35; under C7U G29U, 0.157; under G29C G34A, 0.
The result for A43C G76U reads 0.95.
U79G G80U: the self-cleavage is 0.366.
For the variant A51C A71U, the self-cleavage was 0.892.
The result for C13U C49U reads 0.256.
In the case of C58U C84A, the self-cleavage amounted to 1.02.
G53A U72G: the self-cleavage worked out at 0.429.
The result for G50U G59A reads 0.852; that for C7A C85A, 0.453.
In the case of U20G G67U, the self-cleavage stood at 0.467.
The result for C22U C33A reads 0.0692; that for C24U G81C, 0.111.
As to C3G C48G, the self-cleavage was 0.695.
The result for C13U G29U reads 0.0707; that for C4A C15G, 0.166; that for U23G A71C, 0.256.
Under A56G C84A stands 1.16.
Under G54A C84A stands 0.496; under G55A A87C, 1.1.
As to U47C G73C, the self-cleavage is 0.374.
For the variant C13G U60A, the self-cleavage amounted to 0.237.
Under C41G A78C stands 0.0405.
On to C13U C64A, for which the self-cleavage came out at 0.807.
As to C36G G81A, the self-cleavage came to 0.0545.
Under G5A C14U stands 0.119; under C62A G82A, 0.35; under G1U C4U, 0.251.
As for A45G G68C, the self-cleavage amounted to 0.767.
The result for U20G G55C reads 0.0978; that for U20G G59A, 0.268; that for G40A G53A, 0.882.
For U12G C24A, the self-cleavage is 0.65.
Regarding C15G C44A, the self-cleavage was determined as 0.237.
For C24G A70C, the self-cleavage stood at 0.0978.
Regarding G1C A43C, the self-cleavage was found to be 0.332.
The result for U27C G52U reads 1.01; that for A43U U60C, 0.678.
Turning to G50A A77C, the self-cleavage was determined as 0.227.
Turning to U60A G68A, the self-cleavage turned out to be 0.917.
Take G10U C33G: the self-cleavage came out at 0.0511.
For C24U A78G, the self-cleavage is 0.397.
For U46A A77C, the self-cleavage turned out to be 0.119.
Under G40C G74U stands 0.202; under U27C G68C, 0.511; under G34C A51C, 0.107.
The result for G10A G28A reads 0.0336.
As for G67A G80C, the self-cleavage was found to be 0.172.
The result for C13G C44U reads 0.
With C7A G31C, the self-cleavage was 1.03.
For the variant G1U G31C, the self-cleavage came out at 0.356.
For U20C C64G, the self-cleavage was determined as 0.128.
For the variant C22G U60G, the self-cleavage worked out at 0.
Under U27G U65A stands 1.03; under U27G U65G, 0.95.
The result for A77G G80U reads 0.244.
Under A56U U69A stands 1.04; under C18G A51G, 0.
C7A G81A: the self-cleavage is 0.0302.
The result for A8U C18A reads 0.0554; that for A8U C18U, 0.631.
The result for G10C G59C reads 0.785.
As for A16U A71U, the self-cleavage came out at 0.877.
As to A87C, the self-cleavage stood at 1.01.
For the variant G5A C36A, the self-cleavage amounted to 0.0627.
Regarding U9C G53A, the self-cleavage turned out to be 1.01.
Under C13U C85G stands 0.332; under G25C C58U, 0.0739; under U20A U27G, 0.
Under U65C G76C stands 1.09; under G38U G80A, 0.102; under G25C A56G, 0.161.
Turning to C32U C58A, the self-cleavage was 1.
Under G55C G74U stands 0.652; under C7U U27A, 0.519; under C7G C63G, 0.201.
C15U A71C: the self-cleavage was 0.467.
Under C32A A77C stands 0.219; under C7G C49U, 0.237; under U37C G54C, 1.13.
Under C63A G74C stands 0.312; under A45U G82A, 0.162.
Under A45U G82U stands 0.529; under G29A G35U, 0.101.
For the variant C32U A43C, the self-cleavage is 0.196.
For C32A A45U, the self-cleavage came to 0.151.
G53A A78U: the self-cleavage came out at 0.277.
As to C4A U20C, the self-cleavage amounted to 0.214.
Under U27C U65A stands 0.957; under G28U C62U, 0.205.
The result for G11U A78G reads 0.106.
Turning to U20A G50U, the self-cleavage came out at 0.
As for G34A G52C, the self-cleavage stood at 0.0545.
In the case of G73C U79G, the self-cleavage came to 0.107.
Regarding G2A G81C, the self-cleavage came out at 0.115.
The result for A8U G40C reads 0.234; that for A51U C57U, 0.801; that for C24G G31A, 0.0594.
Turning to U9A C30G, the self-cleavage came out at 0.138.
For the variant C13G A70C, the self-cleavage was found to be 0.
In the case of G11C U12G, the self-cleavage came to 0.123.
Consider G28A C66U, for which the self-cleavage worked out at 0.138.
The result for A8C U12G reads 0.831; that for C4A G17A, 0.0396.
The result for C36G G54U reads 0.166; that for A16C G74U, 0.415.
With C19A G29C, the self-cleavage came out at 0.0941.
The result for G25A U79G reads 0; that for A8G A83G, 0.88.
Take C15U U72C: the self-cleavage was determined as 0.598.
Under U27G C62A stands 1.09; under A16C G76A, 1.08; under C7G U23G, 0.217.
Regarding C4A C49U, the self-cleavage turned out to be 0.282.
Under G28U G53U stands 0.124.
Under G50C A83G stands 0.491; under C61G C66A, 0.674; under A42G A43U, 0.185.
Under C3A C48A stands 0.839; under G5U G81C, 0.
With G53U A77C, the self-cleavage was found to be 0.453.
Take C62A G73A: the self-cleavage is 0.545.
G31U G39U: the self-cleavage amounted to 0.285.
U20C G74A: the self-cleavage came out at 0.125.
The result for U37A U60A reads 0.111.
For U47C G54C, the self-cleavage stood at 0.554.
The result for U9A U47C reads 0.997; that for A45C G67U, 0.604; that for A43C C64A, 0.38.
